# Results as given in CN114106160A.
# Target: SARS-CoV-2 S1蛋白 (ACRO Biosystems) (SARS-CoV-2) (UniProt P0DTC2)
# Test: BLI, biotinylated SARS-CoV-2 S1 on SA sensor, antibody as analyte, 1:1 model
substance,measurement,value
人源抗体CR3022 (antibody),Kd,0.0866 nM
same,koff,1.9e-05 s⁻¹
same,kon,220000 M⁻¹ s⁻¹
